B1: ER membrane protein complex subunit 2 (Homo sapiens), Q15006 (parent)
chain: MAKVSELYDVTWEEMRDKMRKWREENSRNSEQIVEVGEELINEYASKLGDDIWIIYEQVMIAALDYGRDDLALFCLQELRRQFPGSHRVKRLTGMRFEAMERYDDAIQLYDRILQEDPTNTAARKRKIAIRKAQGKNVEAIRELNEYLEQFVGDQEAWHELAELYINEHDYAKAAFCLEELMMTNPHNHLYCQQYAEVKYTQGGLENLELSRKYFAQALKLNNRNMRALFGLYMSASHIASNPKASAKTKKDNMKYASWAASQINRAYQFAGRSKKETKYSLKAVEDMLETLQITQS
partner: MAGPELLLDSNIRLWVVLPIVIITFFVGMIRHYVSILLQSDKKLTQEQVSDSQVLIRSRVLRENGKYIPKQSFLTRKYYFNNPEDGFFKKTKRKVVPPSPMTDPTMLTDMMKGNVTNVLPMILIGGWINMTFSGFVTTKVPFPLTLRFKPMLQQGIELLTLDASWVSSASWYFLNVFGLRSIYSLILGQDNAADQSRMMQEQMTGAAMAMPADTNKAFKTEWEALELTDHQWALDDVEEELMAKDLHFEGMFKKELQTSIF
B2: ER membrane protein complex subunit 6 (Homo sapiens), Q9BV81 (parent)
chain: MAAVVAKREGPPFISEAAVRGNAAVLDYCRTSVSALSGATAGILGLTGLYGFIFYLLASVLLSLLLILKAGRRWNKYFKSRRPLFTGGLIGGLFTYVLFWTFLYGMVHVY
partner: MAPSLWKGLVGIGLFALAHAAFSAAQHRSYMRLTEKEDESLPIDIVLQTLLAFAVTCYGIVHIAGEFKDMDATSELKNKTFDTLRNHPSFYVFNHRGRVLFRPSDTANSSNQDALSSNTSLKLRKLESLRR
B3: ER membrane protein complex subunit 2 (Homo sapiens), Q15006 (parent)
chain: B1 chain
partner: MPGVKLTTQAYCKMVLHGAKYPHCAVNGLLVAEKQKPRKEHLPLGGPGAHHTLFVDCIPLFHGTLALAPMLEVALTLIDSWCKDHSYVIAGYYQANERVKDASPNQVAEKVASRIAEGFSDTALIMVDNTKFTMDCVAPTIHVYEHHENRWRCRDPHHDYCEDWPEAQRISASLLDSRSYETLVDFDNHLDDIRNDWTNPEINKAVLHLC
B4: ER membrane protein complex subunit 2 (Homo sapiens), Q15006 (parent)
chain: B1 chain
partner: B2 partner

Variants of: B1
Conditions: with emc3_human EMC3, Q9P0I2

effect of a mutation on the interaction	Variant
disrupting interaction strength	W259A
with no effect	E156A
with no effect	E160A
with no effect	Y171A
disrupting interaction strength	E180A
with no effect	R28A
disrupting interaction strength	R227A
with no effect	Y200A

Variants of: B2
Conditions: with emc5_human MMGT1, Q8N4V1

effect of a mutation on the interaction	Variant
with no effect	V33K;L36K
with no effect	G45Y;G48A

Variants of: B3
Conditions: with emc8_human EMC8, O43402

effect of a mutation on the interaction	Variant
with no effect	W259A
with no effect	E160A
with no effect	E180A
with no effect	E156A
disrupting interaction strength	R227A
with no effect	Y171A
with no effect	R28A
disrupting interaction strength	Y200A

Variants of: B4
Conditions: with emc5_human MMGT1, Q8N4V1

effect of a mutation on the interaction	Variant
disrupting interaction strength	E156A
with no effect	E180A
disrupting interaction strength	R28A
with no effect	W259A
disrupting interaction strength	Y200A
disrupting interaction strength	R227A
disrupting interaction strength	E160A
with no effect	Y171A
